Experimental findings from publication PMC9371724 (2022) are described below.

Common to all, as to assay: activation reporter or marker
Test [1] addresses T1, hemagglutinin (HA) of pandemic 2009 H1N1 (pHA, HA69) peptide on HLA-DQA1*01:02 / HLA-DQB1*06:02 (human).
T1 peptide: AMERNAGSGIIISDT

For test [2], the target named is T2, HA69 peptide on HLA DQB1*06:02/DQA1*01:02 (DQ0602) (human).
T2 peptide: AMERNAGSGIIISDT

Test [3] concerns the target T3, hemagglutinin (HA) of pandemic 2009 H1N1 (pHA, HA69) peptide on HLA-DQA1*01:02 / HLA-DQB1*06:02 (human).
T3 peptide: AMERNAGSGIIISDT

Where two headings read alike, the source gives them in different places.

B1: TCR275 (TCR)
alpha TRAV13-1 TRAJ43 CDR3: CAANNNDMRF
beta TRBV4-2 TRBJ1-2 CDR3: CASSQETQGRNYGYTF
On to B1, for which the binding result in test [1] and in test [2] was “recognises” throughout.

B2: TCR43 (TCR)
alpha TRAV13-1 TRAJ43 CDR3: CAASDNDMRF
beta TRBV4-2 TRBJ1-2 CDR3: CASSQETQGRNYGYTF
In the case of B2, the binding result in test [1] and in test [2] was “recognises” each time.

B3: TCR CAGSPSQGGSEKLVF / CSARPLGTSGRDEQFF (TCR)
alpha TRAV35 TRAJ57 CDR3: CAGSPSQGGSEKLVF
beta TRBV20-1 TRBJ2-1 CDR3: CSARPLGTSGRDEQFF
As for B3, the binding result in test [3] and in test [2] was “no recognition” throughout.

B4: TCR CALSPDSWGKLQF / CASSTRAPTRTGEKLFF (TCR)
alpha TRAV6 TRAJ24 CDR3: CALSPDSWGKLQF
beta TRBV7-9 TRBJ1-4 CDR3: CASSTRAPTRTGEKLFF
For the molecule B4, the binding result in test [3] is “no recognition”.
